Target: low molecular weight single-chain urokinase plasminogen activator (lmw-scuPA), non-targeted (human, UniProt P00749 164-431)
Test: ELISA on plates coated with soluble mouse PECAM
Method: The size and homogeneity of purified scFv/uPA-T was analyzed using 12% SDS-PAGE with or without addition of thrombin (150 nM). Conversion to its two-chain derivative was determined in the presence of 50 mM dithiothreitol (DTT). cDNA encoding the extracellular domain of mouse PECAM (amino acids Glu¹⁸-Lys⁵⁹⁰) was obtained by the reverse transcription polymerized chain reaction (RT-PCR) using mouse lung tissue total RNA. A FLAG affinity tag was fused to the N-terminus and subcloned into the BglII and NotI sites in the pMT/Bip vector. Stable cell lines were generated. Soluble mouse PECAM was purified from secreted supernatant using M2 anti-FLAG affinity chromatography. Specific binding of scFv/uPA-T to soluble PECAM was measured by ELISA. Each well within a 96-well plate was coated with 5 μg/ml soluble mouse PECAM protein overnight, the unbound sites were blocked with PBS containing 5% bovine serum albumin (BSA) at 37° C. for 1 h and various dilutions of scFv/uPA-T or WT lmw-scuPA were added for 1 hour. Unbound protein was removed by washing with PBS and 1 μg/ml anti-uPA monoclonal antibody in PBS containing 1% BSA was added. The wells were washed, horseradish peroxidase conjugated anti-mouse IgG was added, the wells washed again, TMB substrate was added and the optical density at 450 nm (OD450) was measured. […]

B1: soluble mouse PECAM, extracellular domain (Glu18-Lys590) with N-terminal FLAG tag (receptor, UniProt Q08481 18-590, looked up, not shown: small tags and cut ends)
chain: EENSFTINSIHMESLPSWEVMNGQQLTLECLVDISTTSKSRSQHRVLFYKDDAMVYNVTSREHTESYVIPQARVFHSGKYKCTVMLNNKEKTTIEYEVKVHGVSKPKVTLDKKEVTEGGVVTVNCSLQEEKPPIFFKIEKLEVGTKFVKRRIDKTSNENFVLMEFPIEAQDHVLVFRCQAGILSGFKLQESEPIRSEYVTVQESFSTPKFEIKPPGMIIEGDQLHIRCIVQVTHLVQEFTEIIIQKDKAIVATSKQSSEAVYSVMAMVEYSGHYTCKVESNRISKASSIMVNITELFPKPKLEFSSSRLDQGELLDLSCSVSGTPVANFTIQKEETVLSQYQNFSKIAEESDSGEYSCTAGIGKVVKRSGLVPIQVCEMLSKPSIFHDAKSEIIKGHAIGISCQSENGTAPITYHLMKAKSDFQTLEVTSNDPATFTDKPTRDMEYQCRADNCHSHPAVFSEILRVRVIAPVDEVVISILSSNEVQSGSEMVLRCSVKEGTSPITFQFYKEKEDRPFHQAVVNDTQAFWHNKQASKKQEGQYYCTASNRASSMRTSPRSSTLAVRVFLAPWKK
notes: range 18-590; Secreted from Drosophila cells (pMT/Bip vector), purified on M2 anti-FLAG; coated on 96-well plates at 5 ug/ml; also called immobilized extracellular domain of mouse PECAM; immobilized mouse PECAM
  binding result: no binding

— patent publication US20090130104A1 (University of Pennsylvania, published 2009)
